What all share (test): EMSA
Data set [1] has as its system PRC2-AEBP2L mt1A2A-JARID2 E37A;E38A;E39A;E40A;E41A;E42A;E43A;E44A;E45A;E46A;E47A;E48A;E95A;D96A;E97A;D98A;E99A;E100A;E101A;D102A;D103A;E104A;E105A;E106A;E107A;D108A;E109A (Homo sapiens), Q6ZN18-2+Q92833+Q15910-2+Q15022+O75530+Q09028. The following applies: 2.5 mM Mg2+, 100 mM NaCl; CpG24 EMSA/FA: 50 mM Tris pH 7.5, 100 mM KCl (FA 25/50/100), 0.05% NP40, 0.1 mg/ml BSA, 2 mM 2-ME, 30 C; CpG46 FA: 20 mM Tris pH 8.0, 100 mM NaCl, 0.1 mM …. (A gel shift assay detects complexes by their altered migration in electrophoresis.)

Data set [2] relates to PRC2-AEBP2L(TEV)-JARID2, uncleaved (Homo sapiens). The settings on record: no TEV; Hill 2.4 ± 0.2; CpG24 EMSA/FA: 50 mM Tris pH 7.5, 100 mM KCl (FA 25/50/100), 0.05% NP40, 0.1 mg/ml BSA, 2 mM 2-ME, 30 C; CpG46 FA: 20 mM Tris pH 8.0, 100 mM NaCl, 0.1 mM ….
Data set [3] relates to PRC2-AEBP2L(TEV)-JARID2 cleaved with TEV (Homo sapiens). The settings on record: with TEV; Hill 2.7 ± 0.4; CpG24 EMSA/FA: 50 mM Tris pH 7.5, 100 mM KCl (FA 25/50/100), 0.05% NP40, 0.1 mg/ml BSA, 2 mM 2-ME, 30 C; CpG46 FA: 20 mM Tris pH 8.0, 100 mM NaCl, 0.1 mM ….
For data set [4], the system named is PRC2-AEBP2L-JARID2 wild-type (Homo sapiens), Q6ZN18-2+Q92833+Q15910-2+Q15022+O75530+Q09028. The settings on record: 2.5 mM Mg2+, 100 mM NaCl; CpG24 EMSA/FA: 50 mM Tris pH 7.5, 100 mM KCl (FA 25/50/100), 0.05% NP40, 0.1 mg/ml BSA, 2 mM 2-ME, 30 C; CpG46 FA: 20 mM Tris pH 8.0, 100 mM NaCl, 0.1 mM ….

Take NCP182: the Kd (as a rule, a measure of binding affinity in units of concentration) worked out at 0.0156 µM in data set [1], 0.0248 µM in data set [2], 0.0187 µM in data set [3] and 0.033 µM in data set [4].

The values are drawn from article PMC12669776.
